{"source": "patent US8586034B2", "about": "“Cytomegalovirus disintegrin-like peptides” (priority 2004, dated 2013)", "molecules": {"B1": {"name": "gBDLD: amino acids 57-146 of HCMV AD 169 glycoprotein B disintegrin-like domain, His-tagged, expressed in E. coli (protein)", "chain": "VTSSEAVSHRANETIYNTTLKYGDVVGVNTTKYPYRVCSMAQGTDLIRFERNIICTSMKPINEDLDEGIMVVYKRNIVAHTFKVRVYQKV", "modifications": "left off: small tags and cut ends", "notes": "amino acids 57-146 of HCMV AD 169 glycoprotein B disintegrin-like domain, His-tagged, expressed in E. coli"}, "B2": {"name": "EGF: known cytoskeletal reorganizer (protein, UniProt P01133 23-1207, looked up)", "Pro-epidermal growth factor": "PQHWSCPEGTLAGNGNSTCVGPAPFLIFSHGNSIFRIDTEGTNYEQLVVDAGVSVIMDFHYNEKRIYWVDLERQLLQRVFLNGSRQERVCNIEKNVSGMAINWINEEVIWSNQQEGIITVTDMKGNNSHILLSALKYPANVAVDPVERFIFWSSEVAGSLYRADLDGVGVKALLETSEKITAVSLDVLDKRLFWIQYNREGSNSLICSCDYDGGSVHISKHPTQHNLFAMSLFGDRIFYSTWKMKTIWIANKHTGKDMVRINLHSSFVPLGELKVVHPLAQPKAEDDTWEPEQKLCKLRKGNCSSTVCGQDLQSHLCMCAEGYALSRDRKYCEDVNECAFWNHGCTLGCKNTPGSYYCTCPVGFVLLPDGKRCHQLVSCPRNVSECSHDCVLTSEGPLCFCPEGSVLERDGKTCSGCSSPDNGGCSQLCVPLSPVSWECDCFPGYDLQLDEKSCAASGPQPFLLFANSQDIRHMHFDGTDYGTLLSQQMGMVYALDHDPVENKIYFAHTALKWIERANMDGSQRERLIEEGVDVPEGLAVDWIGRRFYWTDRGKSLIGRSDLNGKRSKIITKENISQPRGIAVHPMAKRLFWTDTGINPRIESSSLQGLGRLVIASSDLIWPSGITIDFLTDKLYWCDAKQSVIEMANLDGSKRRRLTQNDVGHPFAVAVFEDYVWFSDWAMPSVMRVNKRTGKDRVRLQGSMLKPSSLVVVHPLAKPGADPCLYQNGGCEHICKKRLGTAWCSCREGFMKASDGKTCLALDGHQLLAGGEVDLKNQVTPLDILSKTRVSEDNITESQHMLVAEIMVSDQDDCAPVGCSMYARCISEGEDATCQCLKGFAGDGKLCSDIDECEMGVPVCPPASSKCINTEGGYVCRCSEGYQGDGIHCLDIDECQLGEHSCGENASCTNTEGGYTCMCAGRLSEPGLICPDSTPPPHLREDDHHYSVRNSDSECPLSHDGYCLHDGVCMYIEALDKYACNCVVGYIGERCQYRDLKWWELRHAGHGQQQKVIVVAVCVVVLVMLLLLSLWGAHYYRTQKLLSKNPKNPYEESSRDVRSRRPADTEDGMSSCPQPWFVVIKEHQDLKNGGQPVAGEDGQAADGSMQPTSWRQEPQLCGMGTEQGCWIPVSSDKGSCPQVMERSFHMPSYGTQTLEGGVEKPHSLLSANPLWQQRALDPPHQMELTQ", "modifications": "Pro-epidermal growth factor", "notes": "known cytoskeletal reorganizer"}}, "key": {"[1]": {"target": "T1, β3 integrin (Homo sapiens, UniProt P05106)", "T1 construct": "endogenous in cells; host or cells: Normal Human Dermal Fibroblasts (NHDF), detergent lysate", "T1 sequence (P05106 27-788)": "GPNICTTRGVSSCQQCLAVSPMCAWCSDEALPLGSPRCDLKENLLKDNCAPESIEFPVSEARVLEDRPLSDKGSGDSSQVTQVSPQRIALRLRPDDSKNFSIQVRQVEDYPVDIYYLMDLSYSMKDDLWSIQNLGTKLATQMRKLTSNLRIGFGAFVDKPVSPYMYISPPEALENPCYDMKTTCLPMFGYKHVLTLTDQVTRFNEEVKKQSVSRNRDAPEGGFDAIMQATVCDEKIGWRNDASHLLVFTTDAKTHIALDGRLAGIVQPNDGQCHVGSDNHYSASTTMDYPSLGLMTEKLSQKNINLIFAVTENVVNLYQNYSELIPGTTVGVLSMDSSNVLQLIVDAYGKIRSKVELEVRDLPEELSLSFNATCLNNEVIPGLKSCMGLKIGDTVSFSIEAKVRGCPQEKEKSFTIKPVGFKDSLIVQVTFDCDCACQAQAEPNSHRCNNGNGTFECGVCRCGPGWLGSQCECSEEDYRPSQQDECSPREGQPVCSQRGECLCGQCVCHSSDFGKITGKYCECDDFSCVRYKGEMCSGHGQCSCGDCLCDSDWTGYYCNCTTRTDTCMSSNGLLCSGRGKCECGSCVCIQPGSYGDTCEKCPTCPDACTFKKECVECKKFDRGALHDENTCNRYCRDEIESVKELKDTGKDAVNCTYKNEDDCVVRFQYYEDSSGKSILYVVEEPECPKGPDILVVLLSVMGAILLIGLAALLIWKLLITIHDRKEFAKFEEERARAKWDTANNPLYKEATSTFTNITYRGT", "experiment": "Integrin co-immunoprecipitation assay, β3", "format": "binding", "conditions": "human fibroblast lysates, nickel beads", "description": "(§1) A T-175 flask of NHDFs was grown to complete confluence, washed three times in MES buffer and lysed in 1 mL MES buffer+1% TX-100 (a detergent). Lysate was spun at 10,000 g for 10 minutes to remove cell debris. Cell lysate (350 μL) was then incubated with 20 μg gBDLD for 4 hours at 4° C. The lysate+gBDLD mixture was then incubated with 50 μL Ni beads overnight at 4° C. Nickel beads were then washed three times and protein eluted by boiling and then adding reducing SDS-PAGE buffer. Proteins were separated by SDS-PAGE and Western blotted for β1 integrin (Chemicon-1965) or β3 (Chemicon) as previously described.^48\n(§2) To identify the cellular receptor for gBDLD we performed co-immunoprecipitation studies. Briefly, gBDLD was incubated with human fibroblast lysates and pulled down with nickel-conjugated agarose beads.\n(§3) Because gBDLD contains a known β1 integrin binding motif, gBDLD bound to its cellular receptor was isolated by SDS-PAGE and then Western blotted for either β1 or β3 integrin. The resulting gels are shown in FIG. 10 (β1) and FIG. 11 (β3)."}, "[2]": {"experiment": "Solubility of purified gBDLD in dialysis buffer", "format": "physicochemical", "conditions": "55 mM MES, pH 5.5, 300 mM NaCl", "description": "DNA sequence corresponding to amino acids 57-146 of HCMV AD 169 glycoprotein B disintegrin-like domain (“gBDLD”) was cloned into the bacterial expression vector pET-28a containing an N-terminal His-Tag with thrombin cleavage site and kanamycin resistance. (Commercially available from Novagen, San Diego, Calif.) gBDLD production was induced by the addition of 1 mM isopropyl-βD-thiogalactopyranoside (IPTG). E. coli Tuner strain containing pET-28a:gBDLD was grown at 37° C. in Luria-Bertani medium containing kanamycin (50 μg/mL) to an optical density at 600 nm of approximately 0.6. IPTG (1 mM) was added and the plates were incubated continuously for 4 h at 37° C. Cells were harvested by centrifugation at 4000 r/min for 10 min and pellets were resuspended in 1% Triton X-100/Ni-NTA buffer (300 mM NaCl/50 mM Tris-HCL pH 7.9) and lysed by 3×60 s bursts of sonication. The lysate was centrifuged at 15,000 r/min for 15 minutes at 4° C. The 8M urea/Ni-NTA fraction was then poured into a chromatography column containing nickel-nitriloacetic acid agarose (Ni-NTA) beads at 4° C. and allowed to flow through. […] Fractions containing protein were determined by measuring the absorbance of each fraction at 214 nm. Fractions that corresponded to absorption peaks were analyzed by sodium dodecyl sulfate polyacrylamide electrophoresis (SDS-PAGE) to determine the size of the protein. […]"}, "[3]": {"test_system": "diI-labeled HCMV", "format": "cell-based, Human cytomegalovirus", "conditions": "gBDLD or BSA 320 μg/mL, soluble heparin 50 μg/mL; 24 hours post-infection"}, "[4]": {"test_system": "NHDF cells", "experiment": "Cytoskeletal rearrangement, actin staining with phalloidin", "format": "cell-based, human", "conditions": "compared to buffer alone", "description": "β1 integrins are known inducers of broad signal transduction events. […] To test the role of gBDLD in mediating signaling events, we stimulated NHDF cells with buffer alone, gBDLD, or a known cytoskeletal reorganizer (EGF), followed by actin staining with phalloidin."}, "[5]": {"test_system": "HCMV-GFP", "experiment": "HCMV infectivity assay (HCMV-GFP, flow cytometry)", "format": "cell-based, Human cytomegalovirus", "conditions": "human fibroblasts", "description": "NHDFs were washed three times with MES buffer followed by the addition of gBDLD for 60 minutes at 37° C. Cells were then washed twice with MES buffer, three times with PBS and inoculated with HCMV-GFP (MOI=0.5) in serum-free DMEM. After 60 minutes, virus was removed and a 30 second, low-pH citrate wash was performed to remove extracellular virus. Twenty-four hour, post-infection cells were harvested and flow cytometry was performed to assay for GFP-positive cells.\nFIG. 9 is a graph depicting the results of an assay to determine if gBDLD blocks NHDF cells from infection with HCMV. The infectivity assay was performed as described in the earlier examples. Briefly, gBDLD or BSA was added to human fibroblasts for 60 minutes. Cells were then washed, followed by HCMV-GFP challenge for 60 minutes. Cells were then citrate washed to remove any extracellular virus and incubated overnight. Flow cytometry was performed to assay for GFP positive versus total cells. As is readily observed from FIG. 9, gBDLD exerts a dose-dependent inhibition of HCMV infectivity in the cells tested."}, "[6]": {"target": "T2, β1 integrin (Homo sapiens, UniProt P05556)", "T2 construct": "endogenous in cells; host or cells: Normal Human Dermal Fibroblasts (NHDF), detergent lysate", "T2 sequence (P05556 21-798)": "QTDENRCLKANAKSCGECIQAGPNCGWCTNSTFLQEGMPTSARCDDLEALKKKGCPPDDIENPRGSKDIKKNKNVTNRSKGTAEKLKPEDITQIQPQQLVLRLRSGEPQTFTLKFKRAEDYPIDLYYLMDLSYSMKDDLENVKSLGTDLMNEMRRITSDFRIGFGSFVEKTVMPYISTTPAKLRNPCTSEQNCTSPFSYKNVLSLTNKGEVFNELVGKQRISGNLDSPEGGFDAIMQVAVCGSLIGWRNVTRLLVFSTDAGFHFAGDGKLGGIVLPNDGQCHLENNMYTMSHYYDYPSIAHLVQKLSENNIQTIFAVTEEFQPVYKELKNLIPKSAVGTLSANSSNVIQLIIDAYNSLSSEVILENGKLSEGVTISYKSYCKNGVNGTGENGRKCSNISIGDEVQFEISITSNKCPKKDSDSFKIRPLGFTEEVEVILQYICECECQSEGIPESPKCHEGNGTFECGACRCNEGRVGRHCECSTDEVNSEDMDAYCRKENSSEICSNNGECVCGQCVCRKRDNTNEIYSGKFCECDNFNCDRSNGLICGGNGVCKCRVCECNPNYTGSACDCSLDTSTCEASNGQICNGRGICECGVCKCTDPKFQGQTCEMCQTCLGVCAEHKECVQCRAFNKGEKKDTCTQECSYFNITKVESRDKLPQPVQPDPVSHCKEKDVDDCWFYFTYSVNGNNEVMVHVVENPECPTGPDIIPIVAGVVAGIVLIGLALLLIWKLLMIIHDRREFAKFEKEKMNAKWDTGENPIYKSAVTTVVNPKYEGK", "experiment": "Integrin co-immunoprecipitation assay, β1", "format": "binding", "conditions": "human fibroblast lysates, nickel beads", "description": "as §1, §2, §3"}, "[7]": {"target": "Normal human dermal fibroblasts", "experiment": "Protein binding assay, gBDLD to fibroblasts (His-tag ELISA)", "description": "Normal human dermal fibroblasts were chilled to 4° C., washed three times with cold MES buffer and blocked with 1 mg/mL bovine serum albumin (BSA) for 30 minutes at 4° C. Unbound BSA was removed with cold MES washes (×4). The indicated amounts of gBDLD were added to each well for 90 minutes at 4° C. Cells were then washed three times with cold MES, twice with cold (phosphate-buffered saline (PBS) and fixed with 3% paraformaldehyde. An ELISA was then performed probing with anti-His rabbit polyclonal antibody (Santa Cruz Biotechnology, Santa Cruz, Calif.) and anti-rabbit HRP (Pierce). Absorbance was measured at 405 nm.\nFIG. 7 is a graph depicting the results of a gBDLD binding assay (performed as described previously). Here, binding was measured by absorbance at 405 nm. […] To generate the data, human fibroblasts were incubated with gBDLD for the indicated times at 4° C. Cells were then washed, fixed and an ELISA was performed probing for the gBDLD […] his-tag. […]\nFIG. 8 is a graph depicting gBDLD binding to human fibroblasts. As is readily apparent from FIG. 8, this binding is dose-dependent and saturable. […] After three IVIES washes and two PBS washes, cells were fixed in 3% paraformaldehyde and a His-tag ELISA was performed to quantitate gBDLD bound to cells."}}, "data": [{"molecule": "B1", "values": [{"measurement": "interaction with β3 integrin (pull down, Western blot)", "setting": "[1]", "value": "does not interact"}, {"measurement": "Solubility", "setting": "[2]", "value": "approximately 1 mg/mL"}, {"measurement": "HCMV fusion (dye transfer) and gene expression", "setting": "[3]", "value": "complete block"}, {"measurement": "reorganization of the cytoskeleton", "setting": "[4]", "value": "triggered a dramatic reorganization of the cytoskeleton"}, {"measurement": "IC50 for HCMV neutralization", "setting": "[5]", "value": 20.5, "unit": "µg/mL"}, {"measurement": "IC50", "setting": "[5]; read-out: IC50 for HCMV neutralization", "value": 1960, "unit": "nM"}, {"measurement": "interaction with β1 integrin (pull down, Western blot)", "setting": "[6]", "value": "interacts"}, {"measurement": "kinetics of gBDLD binding to human fibroblasts", "setting": "[7]; 4° C., ELISA for his-tag", "value": "rapid kinetics"}, {"measurement": "concentration at which gBDLD binding to fibroblast monolayers reached saturation", "setting": "[7]; 60 minutes, after BSA block", "value": 12.5, "unit": "µg/mL"}]}, {"molecule": "B2", "values": [{"measurement": "reorganization of the cytoskeleton", "setting": "[4]", "value": "triggered a dramatic reorganization of the cytoskeleton"}]}]}
